# Test results: the DeepSol protein solubility set
# Test: soluble on expression in E. coli; label from the status in PepcDB or PDB records
row,Sequence,soluble on expression in E. coli
1,MGSDKIHHHHHHNDDPGKDPDVVTYDFKNLPADSGAKPTEDQMSAVVATFVDEVALPTYKDMLTKMTAYKNAVDKFIASGSKNDLADACDAWRAVRVPWEQSEAFLFGVADLAQLDPSLDSWPLDKNGIEEIIATGEFSKISGAVDEDAEDGPQNLRGFHTAEKMLFLDGEPRDLETSPFAKNELEYLKLVSERMLSDTQDLYNGWLKGLGTSDVPSSYAEAMKKHDGSAYSIGNVYQAIELMLNGNNGMAGISNEVGSAKITDPVTAWNGSNKDATDPNNPGVLAVESWYSWNSLDDYKNNIVSIKNAYFGGRDLDEESASESSLHALTKMINPTLDSLMVVQIDKTIDAINAIGYPFRNNLGDTEHINTATEACADLTTGLGVVKSKFTN,not soluble
2,MSLALIVQKFGGTSVGTVERIEQVAEKVKKFREAGDDVVVVVSAMSGETNRLIGLANQIMEQPVPRELDVMVSTGEQVTIALLSMALIKRGVPAVSYTGNQVRILTDSAHTKARILHIDDTHIRADLKAGRVVVVAGFQGVDGNGNITTLGRGGSDTTGVALAAALKADECQIYTDVDGVYTTDPRVVPQARRLDKITFEEMLEMASLGSKVLQIRAVEFAGKYNVPLRVLHSFQEGPGTLITIDDEEESMEQPIISGIAFNRDEAKLTIRGVPDTPGVAFKILGPISAANVEVDMIVQNVAHDNTTDFTFTVHRNDYLNALEILKQTAANIGAREAIGDTNIAKVSIVGVGMRSHAGVASRMFEALAKESINIQMISTSEIKVSVVIEEKYLELAVRALHTAFELDAPARQGEEGHHHHHH,soluble
3,MPGSDAGPRRRGVHEQRRNRMSNEAKCPFHQAAQNGTSNRDWWPNQLDLSILHRHSSLSDPMGKDFNYAQAFEKLDLAAVKRDLHALMTTSQDWWPADFGHYGGLFIRMAWHSAGTYRTADGRGGAGEGQQRFAPLNSWPDNANLDKARRLLWPIKQKYGRAISWADLLILTGNVALESMGFKTFGFAGGRADTWEPEDVYWGSEKIWLELSGGPNSRYSGDRQLENPLAAVQMGLIYVNPEGPDGNPDPVAAARDIRDTFARMAMNDEETVALIAGGHTFGKTHGAGPASNVGAEPEAAGIEAQGLGWKSAYRTGKGADAITTGLEVTWTTTPTQWSHNFFENLFGYEWELTKSPAGAHQWVAKGADAVIPDAFDPSKKHRPTMLTTDLSLRFDPAYEKISRRFHENPEQFADAFARAWFKLTHRDMGPRARYLGPEVPAEVLLWQDPIPAVDHPLIDAADAAELKAKVLASGLTVSQLVSTAWAAASTFRGSDKRGGANGARIRLAPQKDWEANQPEQLAAVLETLEAIRTAFNGAQRGGKQVSLADLIVLAGCAGVEQAAKNAGHAVTVPFAPGRADASQEQTDVESMAVLEPVADGFRNYLKGKYRVPAEVLLVDKAQLLTLSAPEMTVLLGGLRVLGANVGQSRHGVFTAREQALTNDFFVNLLDMGTEWKPTAADADVFEGRDRATGELKWTGTRVDLVFGSHSQLRALAEVYGSADAQEKFVRDFVAVWNKVMNLDRFDLA,soluble
4,MGSSHHHHHHSSGRENLYFQGHMSKPIVMERGVKYRDADKMALIPVKNVATEREALLRKPEWMKIKLPADSTRIQGIKAAMRKNGLHSVCEEASCPNLAECFNHGTATFMILGAICTRRCPFCDVAHGRPVAPDANEPVKLAQTIADMALRYVVITSVDRDDLRDGGAQHFADCITAIREKSPQIKIETLVPDFRGRMDRALDILTATPPDVFNHNLENVPRIYRQVRPGADYNWSLKLLERFKEAHPEIPTKSGLMVGLGETNEEIIEVMRDLRRHGVTMLTLGQYLQPSRHHLPVQRYVSPDEFDEMKAEALAMGFTHAACGPFVRSSYHADLQAKGMEVK,soluble
5,MRDIQQVLERWGAWVANNHEDVTWSSIAAGFKGLIPSKVKSRPQCCDDDAMVICGCMARLNRNNNDLHDLLVDYYVFGMTFMTLARKHGCSDGYIGKKLQKAEGVVEGMLMMLGVRLEMDKYIEHP,not soluble
6,MAHHHHHHMFSPVYEDVSGLFGHPMPISGFGPSTELQFPQTSYMTTTTNAPQTPTQQQQQQLAGRATVYSLVDASGVQLHRQAAPPQQIPMSSVPFGAFDGASIVPYEVFMQHQQQQQLAAAGKPTAVHAQDGVKYYLSSSTGAPVMASAGPAATTQANIMQMQQHGGTLYTLESNGTTTALTSTPPAGGLFSGAAAANGAPPSGEYPFYAAATGFLSSGPLGMAPATVGSASVTPYAIQGHMPSASPRARGAVNRSPAATIAGNQHHSNSGNNSSSASTRRENQATLHEM,not soluble
7,MAEDLYKRLNTVDRLFTLALDLHSHTDLAAQTLMKSGKVHSIERVETDMLYQNHDKKFHLRSREFLDFPQNYCDLIVSLLSLQLTNDTPGVLSQIKNILKPDGLFLAVMAGVGTLSELRECLLQAEIEIYGGASPRIYPFADIRAVGALLQRVGFALPVADIEDVTIRYDTMFDLINDLRAMGMQNALINRSRRPVSKRFFLRAAEIYAKRFSDLDGRIRAHFSFIWLSGWAPHPNQQKPIQPGSAQISLADVLVKQSKKT,not soluble
8,MGSSHHHHHHSSGLVPRGSHMMEVGFLGLGIMGKAMSMNLLKNGFKVTVWNRTLSKCDELVEHGASVCESPAEVIKKCKYTIAMLSDPCAALSVVFDKGGVLEQICEGKGYIDMSTVDAETSLKINEAITGKGGRFVEGPVSGSKKPAEDGQLIILAAGDKALFEESIPAFDVLGKRSFYLGQVGNGAKMKLIVNMIMGSMMNAFSEGLVLADKSGLSSDTLLDILDLGAMTNPMFKGKGPSMNKSSYPPAFPLKHQQKDMRLALALGDENAVSMPVAAAANEAFKKARSLGLGDLDFSAVIEAVKFSRE,soluble
9,GLVAHSDLDERAIEALKEFNEDGALAVLQQFKDSDLSHVQNKSAFLCGVMKTYRQREKQGTKVADSSKGPDEAKIKALLERTGYTLDVTTGQRKYGGPPPDSVYSGQQPSVGTEIFVGKIPRDLFEDELVPLFEKAGPIWDLRLMMDPLTGLNRGYAFVTFCTKEAAQEAVKLYNNHEIRSGKHIGVCISVANNRLFVGSIPKSKTKEQILEEFSKVTEGLTDVILYHQPDDKKKNRGFCFLEYEDHKTAAQARRRLMSGKVKVWGNVGTVEWADPIEDPDPEVMAKVKVLFVRNLANTVTEEILEKAFSQFGKLERVKKLKDYAFIHFDERDGAVKAMEEMNGKDLEGENIEIVFAKPPDQKRKERKAQRQAAKNQMYDDYYYYGPPHMPPPTRGRGRGGRGGYGYPPDYYGYEDYYDYYGYDYHNYRGGYEDPYYGYEDFQVGARGRGGRGARGAAPSRGRGAAPPRGRAGYSQRGGPGSARGVRGARGGAQQQRGRGQGKGVEAGPDLLQ,soluble
10,MRHLSLLLCCLLAWPARAETLVEIPTRPGVALRFLLLEPPGPPRANLILLAGGEGLLKLSAEGELGAGRGNFLVRTRQGWADMGFRVAVVDAPSDMPRGLLGDFRERAEHAADIAAVSDYLRRGAALPVWLAGTSRGTTSAAAVALNRPDAADGLLLTSSIDAGRGSLAGLPLERLAVPVLMIQHRRDECRASRPGNLGPVLDRLRADAPRELMLLDGGGSEGDPCQPWAWHGYNGIERRVLGLAGAWMLAHGRHLEHHHHHH,not soluble
11,MTLPKIGKPATRALNSQGIYTLEAVSQYTKSSLMEMHGVGPKAISILEQALFQHQLHFKTEVQSSLPFKLTGDVSCNHAPKRQQMIDFIVATAALDIELLRSLVTTEFIWSVPGHFDIYGPQILIQELSNYYNQVASLNIHSNITHGCLGSMHGIEILKTGKEIHFAHFFEFENHKKDAKLSKVTSYIVVA,not soluble
12,MNMPLISIIMPVYNAECYLNQGILSCLNQSYQNIELILIDDGSTDKSIEIINNIIDKDKRVKLFFTPTNQGPAAARNIGLEKAQGDYITFLDSDDFIANDKLEKQLNFMLQNHLVMTHGNYAFCDLEGNQIKLVTTSKKIDYLTLLQGNQFKIMTVLVERESIKLLRFPNIKHEDYAFFLDCLKEVKQSILYSHQASSFVRIGKVSVSSNKFKSAIWTFNIYFKREKLGVVKSIYYFILYAYNGFIKYKK,not soluble
13,MSLTADPPACTVPAAGGSSTHKLVNGGADKLIFKIKSSNNNEYRIVPVFGFVDPSGSKDVVITRTAGAPKEDKLVVHFAPAPADATDAQAAFAAVTPAGTVTIPMSATA,not soluble
14,MSLVPAFPHSTSPTTTVIAVPPALSLPVIETDFPRQLHPYWPRLQEKTRSWLLEKRLMPADKVEEYADGLCYTDLMAGYYIGAPDEVLQAIADYSAWFFVWDDRHDRDVIHRRATAWRQLRFQLHTALDSPRDHLHHRDPLVAGFADSMVRLYSFLGKKWNARFACHFHAVIEAYDREFHNRTRGIVPTVEEYLELRRLTFAHRIWTDLLEPSARHEIPAGVREHPGYRRAALLSQEFAAWYNDLCSLPKEIAGDEVHNLGISLIHHEGLTLEEAVTEVRRRVEECIAEFLVAEKEAVHLADGLADGTRAGHELSDAVKACVANMRNWFSTVYWFHHESGRYRVDSWDDRSTPPYVNNEAAGEGHHHHHH,soluble
15,MGSDKIHHHHHHMKNANHRFFLRERLMKLKTTLFGNVYQFKDVKEVLAKANELRSGDVLAGVAAASSQERVAAKQVLSEMTVADIRNNPVIAYEDDCVTRLIQDDVNETAYNQIKNWSISELREYVLSDETSVDDIAFTRKGLTSEVVAAVAKICSNADLIYGAKKMPVIKKANTTIGIPGTFSARLQPNDTRDDVQSIAAQIYEGLSFGVGDAVIGVNPVTDDVENLSRVLDTIYGVIDKFNIPTQGCVLAHVTTQIEAIRRGAPGGLIFQSICGSEKGLKEFGVELAMLDEARAVGAEFNRIAGENCLYFETGQGSALSAGANFGADQVTMEARNYGLARHYDPFIVNTVVGFIGPEYLYNDRQIIRAGLEDHFMGKLSGISMGCDCCYTNHADADQNLNENLMILLATAGCNYIMGMPLGDDIMLNYQTTAFHDTATVRQLLNLRPSPEFERWLESMGIMANGRLTKRAGDPSLFF,not soluble
16,MGSDKIHHHHHHMVVSIGVFDGVHIGHQKVLRTMKEIAFFRKDDSLIYTISYPPEYFLPDFPGLLMTVESRVEMLSRYARTVVLDFFRIKDLTPEGFVERYLSGVSAVVVGRDFRFGKNASGNASFLRKKGVEVYEIEDVVVQGKRVSSSLIRNLVQEGRVEEIPAYLGRYFEIEGIVHKDREFGRKLGFPTANIDRGNEKLVDLKRGVYLVRVHLPDGKKKFGVMNVGFRPTVGDARNVKYEVYILDFEGDLYGQRLKLEVLKFMRDEKKFDSIEELKAAIDQDVKSARNMIDDIINSKFEKEG,not soluble
17,MGSDKIHHHHHHMSTFIFPGDSFPVDPTTPVKLGPGIYCDPNTQEIRPVNTGVLHVSAKGKSGVQTAYIDYSSKRYIPSVNDFVIGVIIGTFSDSYKVSLQNFSSSVSLSYMAFPNASKKNRPTLQVGDLVYARVCTAEKELEAEIECFDSTTGRDAGFGILEDGMIIDVNFNFARQLLFNNDFPLLKVLAAHTKFEVAIGLNGKIWVKCEELSNTLACYRTIMECCQKNDTAAFKDIAKRQFKEILTVKEE,not soluble
18,SNASYRSTQQITDFTKEILVNGEAVTAFDRQGDLPNVVVTPNFEAGVDQVVDQLAMNDSERDTTAIIGKSLAECEALTKALKARGEQVTLIQTENQRLAPGVIVVPSFLAKGLEFDAVIVWNANQENYQREDERQLLYTICSRAMHELTLVAVGSLSPLLARVNHALYTLNEAK,soluble
19,MYAKANNRTVLSFSEQQIIDCGNFTSPCQENILSHEFIKKNGVVTEADYPYVGKENEKCKYDENKIKLWPTNMLLVGNLPETLLKLFIKEHGPGYFRMKAPPSFFNYKTGIYSPTQEECGKATDARSLTIVGYGIEGGQNYWIVKGSFGT,not soluble
20,MSLKLQASNVTNKNDPKSINSRVFIGNLNTALVKKSDVETIFSKYGRVAGCSVHKGYAFVQYSNERHARAAVLGENGRVLAGQTLDINMAGEPKPDR,soluble
